# Source: patent US20240000838A1 (SIMCERE INNOVATION, published 2024)
# T1: Human CD5 Protein, HisTag (AcroBiosystems, Cat #CD5-H52H5) (human, UniProt P06127 25-372)
# T1 construct: Bought staining reagent, detected with His-APC antibody; also called CD5 antigen; APC labeled CD5 antigen; not shown: His tag
# T1 sequence (looked up): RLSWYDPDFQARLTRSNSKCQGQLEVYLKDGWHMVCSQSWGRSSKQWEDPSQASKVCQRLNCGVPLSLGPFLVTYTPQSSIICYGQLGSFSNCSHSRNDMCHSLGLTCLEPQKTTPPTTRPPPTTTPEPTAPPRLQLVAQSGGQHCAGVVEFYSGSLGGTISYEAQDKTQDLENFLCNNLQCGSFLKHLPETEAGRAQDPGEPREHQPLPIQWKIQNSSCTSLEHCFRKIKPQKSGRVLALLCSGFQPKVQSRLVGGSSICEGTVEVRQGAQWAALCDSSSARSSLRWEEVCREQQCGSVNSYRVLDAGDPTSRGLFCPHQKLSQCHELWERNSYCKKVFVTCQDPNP
# Key:
# [1] = target: T1, Human CD5 Protein, HisTag …; assay: flow cytometry; CAR-T cells stained with soluble human CD5-His and His-APC antibody
# Description: (§1) CD3 and CD5 are stained with a CD3-FITC antibody (BD Biosciences, #555339) and a CD5-APC antibody (BD Biosciences, #555355) for 30 minutes at R.T. in the dark. CAR5 surface expression is detected by staining with Human CD5 Protein, HisTag (AcroBiosystems, Cat #CD5-H52H5) for 1 hour at R.T., washed and then incubated with His-APC antibody (R&D Systems, IC050A) for 30 minutes at R.T. in the dark. CAR33 expression is stained with CD33 human protein-PE (Sino Biological, 12238-HCCH_P) for 1 hour at R.T. All the staining is performed at 1:10 dilutions. DAPI (Thermo Scientific, Cat #BV-421, 1:5000) is used to stain dead cells before running by the Attune NxT Flow Cytometer (Thermo Fisher Scientific). Data is further analyzed by either using Attune NxT flow software or FlowJo software.
# [2] = target: T2, CD33 human protein-PE (Sino Biological, 12238-HCCH_P) (human, UniProt P20138 18-259, PE label); assay: flow cytometry; CAR-T cells stained with CD33 human protein-PE
# T2 construct: Bought staining reagent; also called CD33 antigen
# Description: as §1
# T2 sequence (P20138 18-259 limits assumed): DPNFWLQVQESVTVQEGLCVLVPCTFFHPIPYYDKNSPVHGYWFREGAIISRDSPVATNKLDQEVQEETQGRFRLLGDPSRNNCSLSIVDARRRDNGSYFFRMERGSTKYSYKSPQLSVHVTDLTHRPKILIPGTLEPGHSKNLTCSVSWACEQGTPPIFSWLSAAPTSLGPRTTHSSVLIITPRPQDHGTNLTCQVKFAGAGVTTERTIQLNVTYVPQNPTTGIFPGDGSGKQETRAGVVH
Binder,% of T cells stained with CD5 antigen (CAR5 expression) [1] [%],binding result [2]
"CD5 CAR CAR5-2, construct S006 (other, Chimeric antigen receptor on T cells) NIQLVQSGPELKKPGETVKISCKASGYTFTNYGMNWVKQAPGKGLRWMGWINTHTGEPTYADDFKGRFAFSLETSASTAYLQINNLKNEDTATYFCTRRGYDWYFDVWGAGTTVTVSSGGGGSGGGGSGGGGSDIKMTQSPSSMYASLGERVTITCKASQDINSYLSWFHHKPGKSPKTLIYRANRLVDGVPSRFSGSGSGQDYSLTISSLDYEDMGIYYCQQYDESPWTFGGGTKLEMKASTTTPAPRPPTPAPTIASQPLSLRPEACRPAAGGAVHTRGLDFACDIYIWAPLAGTCGVLLLSLVITLYCKRGRKKLLYIFKQPFMRPVQTTQEEDGCSCRFPEEEEGGCELRVKFSRSADAPAYKQGQNQLYNELNLGRREEYDVLDKRRGRDPEMGGKPRRKNPQEGLYNELQKDKMAEAYSEIGMKGERRRGKGHDGLYQGLSTATKDTYDALHMQALPPR",> 80,–
"CD5 CAR CAR5-6, construct S010 (other, Chimeric antigen receptor on T cells) EIQLVQSGGGLVKPGGSVRISCAASGYTFTNYGMNWVRQAPGKGLEWMGWINTHTGEPTYADSFKGRFTFSLDDSKNTAYLQINSLRAEDTAVYFCTRRGYDWYFDVWGQGTTVTVSSGGGGSGGGGSGGGGSDIQMTQSPSSLSASVGDRVTITCRASQDINSYLSWFQQKPGKAPKTLIYRANRLESGVPSRFSGSGSGTDYTLTISSLQYEDFGIYYCQQYDESPWTFGGGTKLEIKASTTTPAPRPPTPAPTIASQPLSLRPEACRPAAGGAVHTRGLDFACDIYIWAPLAGTCGVLLLSLVITLYCKRGRKKLLYIFKQPFMRPVQTTQEEDGCSCRFPEEEEGGCELRVKFSRSADAPAYKQGQNQLYNELNLGRREEYDVLDKRRGRDPEMGGKPRRKNPQEGLYNELQKDKMAEAYSEIGMKGERRRGKGHDGLYQGLSTATKDTYDALHMQALPPR",> 80,–
"CD33 CAR CAR33-2, construct S012 (other, Chimeric antigen receptor on T cells) QVQLVQSGAEVKKPGSSVKVSCKASGYTFTDYNMHWVRQAPGQGLEWIGYIYPYNGGTGYNQKFKSKATITADESTNTAYMELSSLRSEDTAVYYCARGRPAMDYWGQGTLVTVSSGGGGSGGGGSGGGGSDIQMTQSPSSLSASVGDRVTITCRASESVDNYGISFMNWFQQKPGKAPKLLIYAASNQGSGVPSRFSGSGSGTDFTLTISSLQPDDFATYYCQQSKEVPWTFGQGTKVEIKASTTTPAPRPPTPAPTIASQPLSLRPEACRPAAGGAVHTRGLDFACDIYIWAPLAGTCGVLLLSLVITLYCKRGRKKLLYIFKQPFMRPVQTTQEEDGCSCRFPEEEEGGCELRVKFSRSADAPAYKQGQNQLYNELNLGRREEYDVLDKRRGRDPEMGGKPRRKNPQEGLYNELQKDKMAEAYSEIGMKGERRRGKGHDGLYQGLSTATKDTYDALHMQALPPR",–,binds
